{"source": "patent US20150118185", "about": "“Heparosan-Polypeptide and Heparosan-Polynucleotide Drug Conjugates and Methods of Making and Using Same” (The Board of Regents of the University of Oklahoma, published 2015)", "biological_target": "VEGF (Homo sapiens, UniProt P15692-4 P15692-4:27-191)", "sequence (P15692 other isoform, or with tags, fused parts or gaps)": "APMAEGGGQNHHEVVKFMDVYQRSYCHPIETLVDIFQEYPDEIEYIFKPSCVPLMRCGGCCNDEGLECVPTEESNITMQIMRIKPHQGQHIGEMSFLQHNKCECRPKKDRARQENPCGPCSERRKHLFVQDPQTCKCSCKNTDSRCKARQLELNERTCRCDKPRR", "test": "EMSA; 1:1 molar ratio, 3 h, room temperature, 100 mM phosphate neutral pH, 10% TBE gel; high MW complex band; confirmed by HPLC-SEC at 552 nm (FIG. 33)", "details": "chain copies: 2; label: 5' Cy3", "text": "The biological activity and therapeutic action of the anti-VEGF aptamer resides in its binding to its target: human recombinant VEGF. Without access to a growth factor, some cells will not be able to proliferate or survive; thus, these molecules are drug targets. Some drugs or drug candidates operate by binding to a growth factor; these molecules can be in the antibody (naturally produced or synthetically constructed) or the apatamer (nucleic acids) classes (e.g., any binding partner in theory). […] A shift mobility assay, using a 10% TBE gel, was used in order to assess the binding of HEP-aptamer to target (FIG. 32). […] As negative and positive control, VEGF was respectively incubated in the presence of heparosan (HEP) or heparin (i.e., VEGF is known to react with heparin and heparan sulfate)."}
{"binder": "ACCCGTCTTCCAGACAAGAGTGCAGGGTT (ssDNA, 3' C6 thiol coupled to heparosan (38.8- or 60-kDa chain))", "note": "[HEP-anti-VEGF DNA aptamer]", "values": [{"measurement": "binding result", "value": "binds"}]}
